# Reference: US20220387487A1, “COMPOSITIONS AND METHODS FOR TREATMENT OF CANCER” (Aleta Biotherapeutics Inc., priority 2019, published 2022)
# Positions count from the first letter of the chain named.
# B1: #330: fusion protein comprised of a CD19 variant and an anti-CLL-1 VHH (2H3); SEQ ID NO:305 (protein)
# chain: MEFGLSWVFLVALFRGVQCQVQLQESGGGLVQAGGSLRLSCVASGSIRSINVMGWYRQAPGKQRELVAACASDGNTYYADSVKGRFTISRDNAEKTVYLQMNNLKPDDTAVYYCDANSRGNYYSGQGTQVTVSSTSGPGGQGAGGGGSGGGGSGGGGSGGGGSPEEPLVVKVEEGDTAALWCLKGTSDGPTQQLTWSRESPLKPFLKYSLGVPGLGVHVRPDAISVVIRNVSQQMGGFYLCQPGPPSEKAWQPGWTVNVEGSGELFRWNVSDLGGLGCGLKNRSSEGPSSPSGKLMSPKLYVWAKDRPEIWEGEPPCLPPRDSLNQSLSRDLTVAPGSTLWLSCGVPPDSVSRGPLSWTHVHPKGPKSLLSLELKDDRPARDMWVMGTSLMLPRATAQDAGKWYCHRGNLTMSFHLEITARPSRHHHHHH
# B2: #440: fusion protein comprising an anti-CLEC12A VHH, an anti-CD33 scFv, and a CD19 ECD; SEQ ID NO:321 (protein)
# chain: MEFGLSWVFLVALFRGVQCQVQLVQSGAEVKKPGESVKVSCKASGYTFTNYGMNWVKQAPGQGLEWMGWINTYTGEPTYADKFQGRVTMTTDTSTSTAYMEIRNLGGDDTAVYYCARWSWSDGYYVYFDYWGQGTSVTVSSGGGGSGGGGSGGGGSDIVMTQSPDSLTVSLGERTTINCKSSQSVLDSSTNKNSLAWYQQKPGQPPKLLLSWASTRESGIPDRFSGSGSGTDFTLTIDSPQPEDSATYYCQQSAHFPITFGQGTRLEIKGGGGSGGGGSGGGGSGGGGSQVQLQESGGGLVQAGGSLRLSCVASGSIRSINVMGWYRQAPGKQRELVAACASDGNTYYADSVKGRFTISRDNAEKTVYLQMNNLKPDDTAVYYCDANSRGNYYSGQGTQVTVSSTSGPGGQGAGGGGSGGGGSGGGGSGGGGSPEEPLVVKVEEGDTAALWCLKGTSDGPTQQLTWSRESPLKPFLKYSLGVPGLGVHVRPDAISVVIRNVSQQMGGFYLCQPGPPSEKAWQPGWTVNVEGSGELFRWNVSDLGGLGCGLKNRSSEGPSSPSGKLMSPKLYVWAKDRPEIWEGEPPCLPPRDSLNQSLSRDLTVAPGSTLWLSCGVPPDSVSRGPLSWTHVHPKGPKSLLSLELKDDRPARDMWVMGTSLMLPRATAQDAGKWYCHRGNLTMSFHLEITARPSRHHHHHH
# Key:
# CLEC12A = target: T1, CLEC12A (Homo sapiens, UniProt Q5QGZ9, K244Q); experiment: ELISA of fusion proteins, FMC63 coat, biotinylated CLEC12A detection; assay type: binding
# T1 sequence (Q5QGZ9 65-265 K244Q): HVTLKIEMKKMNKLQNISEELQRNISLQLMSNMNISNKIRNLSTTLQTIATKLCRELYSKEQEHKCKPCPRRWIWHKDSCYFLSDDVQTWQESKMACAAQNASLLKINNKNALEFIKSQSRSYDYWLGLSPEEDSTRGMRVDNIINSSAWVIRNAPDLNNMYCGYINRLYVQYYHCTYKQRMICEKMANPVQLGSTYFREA
# CLEC12A K form = target: T2, CLEC12A K form (Homo sapiens, UniProt Q5QGZ9); experiment: Flow cytometry binding to HEK-293T cells transfected with CLEC12A amino acid 254 K version; details: FIG. 19
# T2 construct: transfected with full-length CLEC12A (UniProt Q5QGZ9-1) cDNAs; host or cells: HEK-293T
# T2 sequence (Q5QGZ9 1-275 isoform Q5QGZ9-1): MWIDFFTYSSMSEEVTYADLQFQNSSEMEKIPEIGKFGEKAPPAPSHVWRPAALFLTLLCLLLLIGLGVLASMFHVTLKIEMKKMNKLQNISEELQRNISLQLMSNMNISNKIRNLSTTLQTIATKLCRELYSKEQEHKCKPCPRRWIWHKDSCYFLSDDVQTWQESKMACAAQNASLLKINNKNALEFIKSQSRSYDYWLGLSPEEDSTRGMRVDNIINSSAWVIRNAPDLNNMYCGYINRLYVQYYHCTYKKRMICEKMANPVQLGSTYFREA
# Method: (§1) Given the unique binding properties of VHH clone 2H3 relative to the anti-CLEC12A scFv we tested the binding properties of a biparatopic fusion protein containing both the VHH clone 2H3 and an anti-CLEC12A scFv. HEK-293T cells were transfected with full-length CLEC12A (UniProt Q5QGZ9-1) cDNAs expressing the amino acid 254 “K” version of CLEC12A (GenScript) or a version with “Q” at this position generated by mutagenesis. The cells were removed with Accutase and washed with PBS, suspended in 50 μL FACS buffer (FB, PBS+1% BSA and 0.1% sodium azide) and blocked with human Fc block (Becton Dickinson) at room temperature for 10 minutes. Then, 50 μl of the purified fusion proteins #186, #330 or #357 diluted in FACS buffer (starting at 3 μg/ml with 3 fold dilutions) were added. The cell/fusion protein mixture was incubated for 30 minutes at 4° C. and then washed twice with FACS buffer. The cells were suspended in 100 μl of FACS buffer, stained with HIB19-PE (BioLegend […]), and incubated for 30 minutes at 4° C. The cells were washed twice with FACS buffer, fixed with a final concentration of 1% PFA in PBS (Thermo Scientific) and then analyzed by flow cytometry.
# CLEC12A Q form = target: T3, CLEC12A Q form (Homo sapiens, UniProt Q5QGZ9, K244Q); experiment: Flow cytometry binding to HEK-293T cells transfected with CLEC12A amino acid 254 Q version; details: FIG. 19
# T3 construct: transfected with full-length CLEC12A (UniProt Q5QGZ9-1) cDNAs; expressed in transfected cells; host or cells: HEK-293T
# T3 sequence (Q5QGZ9 1-275 isoform Q5QGZ9-1 K254Q): T2 sequence (Q5QGZ9 1-275 isoform Q5QGZ9-1) with K254Q
# Method: as §1
# [1] = test system: CLL-1 positive U937 cells; experiment: Flow cytometry binding of fusion proteins to U937 cells (FMC63-PE detection); design: species or system human; details: FIG. 20
# Method: The ability of an expressed biparatopic construct comprising the fusion protein containing a CD19 variant, an anti-CLL-1 scFv, and an anti-CLL-1 VHH (#357) to bind CLL-1 positive U937 cells was evaluated relative to the binding of an expressed construct containing a fusion protein comprised of a CD19 variant and an anti-CLL-1 VHH (#330) and an expressed construct containing a fusion protein comprised of a wild type CD19 and an anti-CLL-1 scFv (#186). […] Approximately 5×10^5 cells were aliquoted per sample. The cells were spun, washed with FB, and then suspended in 100 μl of the biparatopic or monospecific fusion protein dilution (supernatant or purified starting at 10 μg/ml) in FB. The cell/fusion protein mixture was incubated for 30 minutes at 4° C. and then washed 2× with FB. […] After washing 2× with FB, the cells were fixed with a final concentration of 1% PFA in PBS (Thermo Scientific) and then analyzed by flow cytometry (Accuri C6, Becton-Dickinson).
# To further confirm the binding and cytotoxicity capabilities of an expressed biparatopic fusion protein comprising a CD19 variant, an anti-CLL-1 scFv, and an anti-CLL-1 VHH, a construct was generated with the same features as construct #357 but lacking the HIS tag. […] The cells were washed twice with FACS buffer, fixed with a final concentration of 1% PFA in PBS (Thermo Scientific) and then analyzed by flow cytometry. […]
Molecule,CLEC12A binding EC50 (CLEC12A),EC50 (CLEC12A; read-out: CLEC12A binding EC50),binding to the K form of CLEC12A (CLEC12A K form),binding to the K form weaker than to the Q form (CLEC12A K form),binding to the Q form of CLEC12A (CLEC12A Q form),binding to U937 cells [1]
B1,1.4 ng/mL,29.9 pM,very weakly,"greater than 10,000 fold",binds very well,–
B2,–,–,–,–,–,capable of binding to U937 cells
